Experimental data as given in PMC9001736 (Scientific Reports, 2022).

Columns and labels:
[1] = target: T1, ZZ domain of HERC2 (HERC2ZZ, aa 2702–2755 with additional tryptophan at the C-terminus) (human, UniProt O95714 2702-2755); test: NMR titration; 1H,15N HSQC of 0.1–0.2 mM 15N-labelled HERC2 protein titrated with unlabeled protein or peptide; 298 K; 20 mM Tris (pH 6.8) or 20 mM PBS (pH 6.5), 150 mM NaCl, 2 mM DTT, 10% D2O; conditions: both partners purified
T1 construct: E3 ubiquitin ligase HERC2, human, ZZ domain, aa 2702–2755 of the 4834 residue protein; additional tryptophan residue introduced at the C-terminus of HERC2ZZ to quantify the protein and for the tryptophan fluorescence assay; 15N-labelled in the NMR titrations where it is the observed protein; also called HERCZZ; WT HERC2ZZ; source: E. coli BL21 (DE3) RIL, purified (Ni-NTA, ULP1 cleavage; unlabeled …)
T1 chain: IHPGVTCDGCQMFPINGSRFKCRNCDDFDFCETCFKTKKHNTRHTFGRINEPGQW

[2] = target: T2, HERC2_(ZZ-DOC) (aa 2702–2914), construct encompassing both ZZ and DOC domains (human, UniProt O95714 2702-2914); test: as above; conditions: both partners purified
T2 construct: E3 ubiquitin ligase HERC2, human, ZZ and DOC domains, aa 2702–2914; 15N-labelled for NMR; also called linked HERC2_(ZZ-DOC); source: E. coli BL21 (DE3) RIL, purified (Ni-NTA, ULP1 cleavage); not shown: His8x-SUMO, N-terminal, cleaved

B1: histone H3_(1–12) peptide (aa 1–12 of H3) (peptide, UniProt P68431 2-13, looked up)
peptide: ARTKQTARKSTG
notes: histone H3, aa 1–12; also called H3 peptide
B1: binds [1]; binds [2].
